Target: YTHDC1 YTH domain (Homo sapiens, UniProt Q96MU7 345-509)
Test: ITC

Binder	Kd [nM]
CCAUCG (ssRNA, m6A at position 3) [CC(m6A)UCG hexamer]	1270 ± 240
GGCGUAUCGGCGCC (structured_RNA, m6A at position 6) [UG-mismatch (m6A)UCG Xist hairpin]	2050 ± 100
GGCGCAUCGGCGCC (structured_RNA, m6A at position 6) [(m6A)UCG Xist tetraloop hairpin]	3030 ± 530
